In patent publication US20230340055A1 (published 2023):

What was measured:
Assay in all cases: cell-based or functional assay
[1] = target: T1, IL-2Rβγ (dimeric intermediate affinity IL-2 receptor), human, on cells (human, UniProt P14784 27-551; P31785 23-369)
T1 sequence (looked up) 1: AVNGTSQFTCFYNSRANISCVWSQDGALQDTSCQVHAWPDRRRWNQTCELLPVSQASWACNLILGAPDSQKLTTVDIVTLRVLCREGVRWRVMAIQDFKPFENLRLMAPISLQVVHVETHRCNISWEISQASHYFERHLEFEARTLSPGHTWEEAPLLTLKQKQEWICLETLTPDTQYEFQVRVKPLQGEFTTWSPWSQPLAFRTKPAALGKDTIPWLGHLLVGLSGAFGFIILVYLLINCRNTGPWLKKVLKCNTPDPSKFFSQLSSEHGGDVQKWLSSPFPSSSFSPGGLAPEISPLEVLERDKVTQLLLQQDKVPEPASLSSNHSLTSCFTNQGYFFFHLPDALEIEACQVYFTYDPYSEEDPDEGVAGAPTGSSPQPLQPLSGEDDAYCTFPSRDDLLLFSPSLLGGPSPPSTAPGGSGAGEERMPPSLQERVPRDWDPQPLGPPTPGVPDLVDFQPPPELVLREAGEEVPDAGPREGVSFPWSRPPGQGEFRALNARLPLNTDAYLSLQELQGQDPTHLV
T1 sequence (looked up) 2: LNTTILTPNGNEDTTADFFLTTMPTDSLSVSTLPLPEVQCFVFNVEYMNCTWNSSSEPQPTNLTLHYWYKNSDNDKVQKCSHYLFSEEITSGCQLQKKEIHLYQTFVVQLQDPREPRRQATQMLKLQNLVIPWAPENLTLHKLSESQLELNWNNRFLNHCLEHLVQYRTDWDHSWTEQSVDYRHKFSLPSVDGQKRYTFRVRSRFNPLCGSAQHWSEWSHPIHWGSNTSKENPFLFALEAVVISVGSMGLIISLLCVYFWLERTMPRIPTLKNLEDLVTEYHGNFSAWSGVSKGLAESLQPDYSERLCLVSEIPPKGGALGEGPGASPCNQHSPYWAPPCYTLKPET

[2] = target: T2, IL-2Rαβγ (trimeric high-affinity IL-2 receptor), human, on cells (human, UniProt P01589 22-272; P14784 27-551; P31785 23-369)
T2 sequence (looked up) 1: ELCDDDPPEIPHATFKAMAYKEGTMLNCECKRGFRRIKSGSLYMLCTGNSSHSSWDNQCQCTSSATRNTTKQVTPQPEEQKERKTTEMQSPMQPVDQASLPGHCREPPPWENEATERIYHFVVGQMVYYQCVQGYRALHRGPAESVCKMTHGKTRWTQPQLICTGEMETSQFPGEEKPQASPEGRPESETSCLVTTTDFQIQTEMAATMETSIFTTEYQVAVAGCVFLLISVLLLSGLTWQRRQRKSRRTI
T2 sequence (looked up) 2: T1 sequence (looked up) 1
T2 sequence (looked up) 3: T1 sequence (looked up) 2

[3] = target: T3, IL-2-Rα/β/γ on the murine CTLL-2 T lymphocyte cell line (murine, UniProt P01590 22-268; P16297 27-539; P34902 23-369)
T3 sequence (looked up) 1: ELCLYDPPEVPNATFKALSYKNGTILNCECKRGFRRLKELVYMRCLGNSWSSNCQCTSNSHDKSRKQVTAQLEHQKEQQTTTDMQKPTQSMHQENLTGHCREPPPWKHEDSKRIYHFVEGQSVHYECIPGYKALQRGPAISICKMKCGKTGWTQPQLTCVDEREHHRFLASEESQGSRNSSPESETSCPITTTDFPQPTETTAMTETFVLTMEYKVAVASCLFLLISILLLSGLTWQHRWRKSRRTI
T3 sequence (looked up) 2: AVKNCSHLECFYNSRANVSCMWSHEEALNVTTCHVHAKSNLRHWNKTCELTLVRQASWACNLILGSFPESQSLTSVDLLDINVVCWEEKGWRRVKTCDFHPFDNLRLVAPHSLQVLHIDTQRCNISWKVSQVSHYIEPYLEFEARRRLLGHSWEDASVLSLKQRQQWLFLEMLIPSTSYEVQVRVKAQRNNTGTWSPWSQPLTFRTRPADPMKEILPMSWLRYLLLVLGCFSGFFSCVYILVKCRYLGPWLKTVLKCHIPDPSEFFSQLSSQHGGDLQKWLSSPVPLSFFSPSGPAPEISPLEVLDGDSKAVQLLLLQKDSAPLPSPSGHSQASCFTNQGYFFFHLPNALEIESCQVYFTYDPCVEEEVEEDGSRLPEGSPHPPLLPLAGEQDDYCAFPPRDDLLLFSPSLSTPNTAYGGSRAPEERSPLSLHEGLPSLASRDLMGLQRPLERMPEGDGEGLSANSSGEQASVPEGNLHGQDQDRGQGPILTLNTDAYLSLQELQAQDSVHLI
T3 sequence (looked up) 3: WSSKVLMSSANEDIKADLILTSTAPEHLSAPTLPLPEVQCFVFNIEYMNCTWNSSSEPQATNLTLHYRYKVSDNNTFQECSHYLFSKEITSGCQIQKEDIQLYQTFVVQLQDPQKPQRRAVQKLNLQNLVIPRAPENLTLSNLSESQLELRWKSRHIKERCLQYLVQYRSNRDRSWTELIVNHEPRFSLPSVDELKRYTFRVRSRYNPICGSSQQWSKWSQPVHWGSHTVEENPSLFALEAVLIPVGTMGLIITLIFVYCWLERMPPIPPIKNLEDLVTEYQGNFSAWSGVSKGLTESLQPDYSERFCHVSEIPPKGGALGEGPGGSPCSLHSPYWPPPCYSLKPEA

[4] = target: T1, IL-2Rβγ (dimeric intermediate affinity …); remark: listed apart in the source

- EC50, pSTAT5 MFI, CD8 (human PBMCs) [1]: 78.8 ng/mL
- EC50, pSTAT5 MFI, NK (human PBMCs) [1]: 11.7 ng/mL
- EC50, pSTAT5 MFI, Treg (human PBMCs) [2]: 38 ng/mL
- EC50 CTLL-2, STAT5 phosphorylation [3]: 3.39 µg/mL
- Ratio (E50 CTLL-2 cells/EC50 HH cell) [3]: 35.1
- EC50 HH cells, STAT5 phosphorylation [4]: 0.0966 µg/mL
B1: protein 6 (ligand)
chain: APTSSSTKKTQLQLEHLLLDLQMILNGINNYKNPKLTFGNSTKFYMPKKATELKHLQCLEEELKPLEEVLNLAQSKNFHLRPRDLISNINVIVLELKGSETTFMCEYADETATIVEFLNRWITFSQSIISTLT
modifications: glycosylated (same sequence with the N-glycosylation motif FGNST as protein 1f); glycan sites not analysed separately for protein 6
